Consider one substance from paper PMC8632240.

The test concerns the target human angiotensin-converting enzyme 2 extracellular domain fused to mouse Fc (hACE2-ECD-mFc) (human) (UniProt Q9BYF1). Briefly: ELISA.

Sequence of human angiotensin-converting enzyme 2 extracellular domain fused to mouse Fc (hACE2-ECD-mFc) (human) (Q9BYF1 19-617): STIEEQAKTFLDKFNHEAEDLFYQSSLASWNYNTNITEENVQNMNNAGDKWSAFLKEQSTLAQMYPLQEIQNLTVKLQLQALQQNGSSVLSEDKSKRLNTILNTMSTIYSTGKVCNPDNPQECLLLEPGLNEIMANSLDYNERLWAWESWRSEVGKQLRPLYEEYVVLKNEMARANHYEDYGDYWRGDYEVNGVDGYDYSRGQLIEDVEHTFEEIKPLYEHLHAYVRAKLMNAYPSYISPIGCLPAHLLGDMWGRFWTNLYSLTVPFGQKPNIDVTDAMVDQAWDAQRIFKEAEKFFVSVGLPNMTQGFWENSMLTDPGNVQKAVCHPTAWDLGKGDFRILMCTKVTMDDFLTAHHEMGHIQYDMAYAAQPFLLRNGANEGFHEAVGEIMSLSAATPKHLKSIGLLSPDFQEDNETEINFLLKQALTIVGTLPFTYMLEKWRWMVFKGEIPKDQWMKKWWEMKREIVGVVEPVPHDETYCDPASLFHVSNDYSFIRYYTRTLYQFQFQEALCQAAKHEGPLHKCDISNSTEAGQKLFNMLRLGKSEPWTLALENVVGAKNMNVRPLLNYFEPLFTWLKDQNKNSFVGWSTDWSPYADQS

As for “SARS-CoV-2 S-RBD reference (spike receptor-binding domain, reference type) (from UniProt P0DTC2 319-541) (domain or fragment)”, the IC50 (commonly the concentration at which inhibition is half-maximal) was determined as 123 nM.
